Patent US20040136998A1 (published 2004)

Molecular target: T1, prostate specific membrane antigen (PSMA) (human, UniProt Q04609 1-750)
T1 construct: whole, on cells; Target in all assays is PSMA on LNCaP (LNCap) cells or LNCaP membrane preparation; also called human PSMA
Assay: ELISA on plates coated with LNCap membrane preparation; purified antibody; reference: J415 chimeric antibody

T1 sequence (Q04609 whole entry): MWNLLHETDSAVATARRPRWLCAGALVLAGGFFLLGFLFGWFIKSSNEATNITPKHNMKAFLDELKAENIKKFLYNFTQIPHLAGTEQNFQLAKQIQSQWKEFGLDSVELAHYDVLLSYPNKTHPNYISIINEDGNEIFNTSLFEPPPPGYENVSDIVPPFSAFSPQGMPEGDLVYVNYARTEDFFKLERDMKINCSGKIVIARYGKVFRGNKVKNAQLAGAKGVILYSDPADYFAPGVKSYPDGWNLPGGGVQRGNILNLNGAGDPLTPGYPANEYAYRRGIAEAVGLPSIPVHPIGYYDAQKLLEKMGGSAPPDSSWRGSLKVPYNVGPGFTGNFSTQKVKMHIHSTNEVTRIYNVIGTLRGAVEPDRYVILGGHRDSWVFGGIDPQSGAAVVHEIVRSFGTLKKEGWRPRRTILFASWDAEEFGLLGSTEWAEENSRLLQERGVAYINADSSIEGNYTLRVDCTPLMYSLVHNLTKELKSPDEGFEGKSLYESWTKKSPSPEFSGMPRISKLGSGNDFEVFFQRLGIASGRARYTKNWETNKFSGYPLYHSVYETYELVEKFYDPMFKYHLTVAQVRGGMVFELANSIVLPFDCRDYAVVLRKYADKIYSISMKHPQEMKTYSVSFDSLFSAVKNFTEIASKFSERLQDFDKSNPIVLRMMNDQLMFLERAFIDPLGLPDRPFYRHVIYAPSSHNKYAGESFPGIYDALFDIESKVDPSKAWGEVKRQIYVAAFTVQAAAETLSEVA

fold less binding than the chimeric antibody: 2 fold
B1: deimmunized J415 antibody, heavy chain version 2 with light chain version 5 (antibody, V domains shown)
VH: EVKLEESGGGLVQPGGSMKISCVASGFTFSNYWMNWVRQTPEKGLEWVALIRSQSNNFATHYAESVKGRVIISRDDSKSSVYLQMNSLRAEDTAVYYCTRRWNNFWGQGTTVTVSS
VL: NIVMTQFPKSMSASAGERMTLTCKASENVGTYVSWYQQKPTQSPKMLIYGASNRFTGVPDRFSGSGSGTDFILTISSVQAEDLVDYYCGQSYTFPYTFGGGTKLEMK
